From US20250084434A1 (KRIYA THERAPEUTICS, published 2025)

Target: IGF-1R, endogenous, on cultured cells (HT-1080, Colo205, peripheral blood fibrocytes) (human, UniProt P08069 31-1367)
Assay: cell-based or functional assay

IGF-1R, endogenous, on cultured cells (HT-1080, Colo205, peripheral blood fibrocytes), sequence (P08069 31-1367): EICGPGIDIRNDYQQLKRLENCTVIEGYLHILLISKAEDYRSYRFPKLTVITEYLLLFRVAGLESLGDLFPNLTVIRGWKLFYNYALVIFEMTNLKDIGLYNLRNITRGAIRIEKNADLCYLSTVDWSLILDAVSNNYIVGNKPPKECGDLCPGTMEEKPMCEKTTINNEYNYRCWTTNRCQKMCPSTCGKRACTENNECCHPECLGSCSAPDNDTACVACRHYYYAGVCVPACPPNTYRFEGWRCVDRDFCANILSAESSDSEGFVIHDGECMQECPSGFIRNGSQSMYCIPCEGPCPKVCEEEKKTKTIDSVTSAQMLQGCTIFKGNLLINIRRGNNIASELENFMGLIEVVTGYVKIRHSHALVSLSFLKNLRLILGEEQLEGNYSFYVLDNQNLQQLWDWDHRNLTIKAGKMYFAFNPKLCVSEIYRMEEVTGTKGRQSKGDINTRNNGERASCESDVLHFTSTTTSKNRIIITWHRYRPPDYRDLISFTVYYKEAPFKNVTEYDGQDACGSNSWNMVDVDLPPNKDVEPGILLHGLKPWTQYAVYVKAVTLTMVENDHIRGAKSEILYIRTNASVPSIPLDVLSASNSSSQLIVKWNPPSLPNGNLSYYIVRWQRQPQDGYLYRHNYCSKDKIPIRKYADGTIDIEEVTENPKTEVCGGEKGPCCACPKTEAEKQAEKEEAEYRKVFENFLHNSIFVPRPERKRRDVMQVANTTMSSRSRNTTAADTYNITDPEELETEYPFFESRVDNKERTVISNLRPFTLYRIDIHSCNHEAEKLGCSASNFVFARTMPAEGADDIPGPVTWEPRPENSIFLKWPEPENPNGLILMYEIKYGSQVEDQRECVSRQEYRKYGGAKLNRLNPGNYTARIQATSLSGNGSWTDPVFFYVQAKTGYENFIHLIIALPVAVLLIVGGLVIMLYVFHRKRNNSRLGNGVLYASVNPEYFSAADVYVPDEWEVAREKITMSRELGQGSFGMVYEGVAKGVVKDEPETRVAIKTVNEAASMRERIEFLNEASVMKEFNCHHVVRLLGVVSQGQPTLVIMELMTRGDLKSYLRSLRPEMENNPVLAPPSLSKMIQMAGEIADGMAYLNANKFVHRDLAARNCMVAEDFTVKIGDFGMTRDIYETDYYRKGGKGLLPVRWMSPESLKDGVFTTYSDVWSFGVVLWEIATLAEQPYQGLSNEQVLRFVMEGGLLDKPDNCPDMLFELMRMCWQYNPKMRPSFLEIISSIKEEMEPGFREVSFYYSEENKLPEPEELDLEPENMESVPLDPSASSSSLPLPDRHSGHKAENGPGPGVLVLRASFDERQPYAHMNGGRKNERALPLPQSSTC

B1: vectorized Teprotumumab (secreted from HEK-293 cells transfected with teprotumumab plasmid construct (antibody, V domains shown)
VH: QVELVESGGGVVQPGRSQRLSCAASGFTFSSYGMHWVRQAPGKGLEWVAIIWFDGSSTYYADSVRGRFTISRDNSKNTLYLQMNSLRAEDTAVYFCARELGRRYFDLWGRGTLVSVSS
VL: EIVLTQSPATLSLSPGERATLSCRASQSVSSYLAWYQQKPGQAPRLLIYDASKRATGIPARFSGSGSGTDFTLTISSLEPEDFAVYYCQQRSKWPPWTFGQGTKVESKR
reduction in IGF-1R activation (IGF-1R phosphorylation) by IGF in HT-1080 cells, MSD Insulin Signaling Panel (Phospho Protein): 4 fold
